Patent publication US20040248181A1, “Method and kit for enhancing extraction and quantification of target molecules using microdialysis” (priority 2003, published 2004)

B1: IL-2: mouse cytokine, 15 kD; target analyte of microdialysis sampling (protein, UniProt P04351 21-169, looked up)
Interleukin-2: APTSSSTSSSTAEAQQQQQQQQQQQQHLEQLLMDLQELLSRMENYRNLKLPRMLTFKFYLPKQATELKDLQCLEDELGPLRHVLDLTQSKSFQLEDAENFISNIRVTVVKLKGSDNTFECQFDDESATVVDFLRRWIAFCQSIISTSPQ

Test: Microdialysis sampling of cytokines across CMA-20 probe (10 mm polyethersulfone membrane, 100 kD MWCO) with multiplexed cytokine bead array / flow cytometry readout
Assay type: physicochemical
Details: control perfusion fluid without microspheres; flow rate 1.5 μl/min; quiescent phosphate buffer pH 7.4 containing 5000 pg/ml cytokines
Protocol: Microdialysis probes (CMA-20) with a 10 mm polyethersulfone membrane (100 kDa MWCO) were purchased from CMA Microdialysis (Acton Mass.) and were used as received. For control experiments, the perfusion fluid contained the assay diluent from the BD Pharmingen kit. To enhance the transport of cytokines during the microdialysis sampling process, 5 μl of bead solution for each target analyte was combined and diluted to 250 μl with the assay diluent. […] Greater than 200 μl of fluid was allowed to pass through the microdialysis probe that was immersed into a standard containing 5000 pg/ml of IL-2, IL-4, IL-5, IFN-gamma, and TNF-alpha. After sample collection, the dialysates containing microspheres were reconstituted in 25 μl of assay diluent. Microspheres with coupled target analyte were then incubated with 25 μl phycoerythrin detection reagent for 2 hours and washed briefly prior to flow cytometric analysis.
The dialysate samples were analyzed using a BD FACScan flow cytometer with the appropriate BD Biosciences software for this analysis.
Different cytokines (e.g., mouse IL-2 (15 kD), IL-4 (20-25 kD), and TNF-α ([…])) have been successfully measured across microdialysis probes (CMA-20, 10 mm, polyethersulfone membrane, MWCO 100 kD) in a quiescent solution using a multiplexed cytokine bead array assay (BD Pharmingen). TNF-α has the largest molecular weight of the cytokines targeted for analysis in this example (Thorpe et al., “Detection and Measurement of Cytokines,” Blood Rev. 6:133-48 (1992), which is hereby incorporated by reference in its entirety). Only 25 μl of sample was needed to simultaneously measure all three of these cytokines in solution using the multiplexed bead array (Carson et al., “Simultaneous Quantitation of 15 Cytokines Using a Multiplexed Flow Cytometric Assay,” J. Immunol. Methods 227:41-52 (1999), which is hereby incorporated by reference in its entirety). […]

In order of rising “microdialysis Ed (extraction efficiency)” value:
1. IL-4: mouse cytokine, 20-25 kD; target analyte of microdialysis sampling  0.9±0.3%
2. B1  1.1±0.3%
3. TNF-α  1.5±0.5%
